Test results published in US20210244806A1, “Recombinant Protease Inhibitor-Containing Compositions, Methods for Producing Same and Uses Thereof” (ORAMED LTD., priority 2018, published 2021).

Key:
chymotrypsin = chymotrypsin (Bos taurus, UniProt P00766); test: Chymotrypsin Inhibition Assay; type: biochemical
Protocol: FIG. 4. Chymotrypsin Inhibition Assay.
Unless indicated otherwise, anti-chymotrypsin activity referred to herein is measured using chymotrypsin having an activity of 40 BTEE units per mg. of chymotrypsin, and is expressed in mg. of chymotrypsin inhibited per mg. of protein being tested. BTEE refers to N-Benzoyl-L-Tyrosine Ethyl Ester (see the directions for Sigma-Aldrich Product No. B6125).
(§1) Protease inhibitor enzymatic activity was verified for the recombinant product, and demonstrable inhibition of chymotrypsin activity was achieved (FIG. 4) as well as inhibition of trypsin activity (FIG. 5).

trypsin = target: T1, trypsin (Bos taurus, UniProt P00760); test: Trypsin Inhibition Assay; type: biochemical
T1 sequence (P00760 24-246): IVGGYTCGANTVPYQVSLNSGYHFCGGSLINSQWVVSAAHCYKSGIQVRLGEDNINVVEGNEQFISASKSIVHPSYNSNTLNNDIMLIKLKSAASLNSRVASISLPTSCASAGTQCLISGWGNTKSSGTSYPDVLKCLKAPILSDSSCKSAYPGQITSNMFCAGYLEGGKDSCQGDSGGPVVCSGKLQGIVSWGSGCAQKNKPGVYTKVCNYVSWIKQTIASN
Protocol: FIG. 5. Trypsin Inhibition Assay.
Unless indicated otherwise, anti-trypsin activity referred to herein is measured using trypsin having an activity of 10,000 BAEE units per mg. of trypsin, and is expressed in mg. of trypsin inhibited per mg. of protein being tested. BAEE refers to Na-Benzoyl-L-Arginine Ethyl Ester Solution (see the directions for Sigma-Aldrich Product No. B4500). For example, in a typical assay, one unit corresponds to the amount of inhibitor that reduces the trypsin activity by one benzoyl-L-arginine ethyl ester unit (BAEE-U). One BAEE-U is the amount of enzyme that increases the absorbance at 253 nm by 0.001 per minute at pH 7.6 and 25° C. See, for example, K. Ozawa, M. Laskowski, 1966, J. Biol. Chem. 241:3955; and Y. Birk, 1976, Meth. Enzymol. 45:700.
as §1

B1: rBBI: recombinant Bowman-Birk type proteinase inhibitor, codon-optimized (SEQ ID NO: 1), secreted from Pichia pastoris GS115, clone B17 (protein, listed as Pichia pastoris)
chain: DDESSKPCCDQCACTKSNPPQCRCSDMRLNSCHSACKSCICALSYPAQCFCVDITDFCYEPCKPSEDDKEN
**Q.** Which results are given for B1?
**A.** inhibition of chymotrypsin activity compared to purified SBTI purified from soya (chymotrypsin; FIG. 4, result in words): far greater inhibition of enzymatic activity; chymotrypsin inhibited by 1 mg inhibitor (chymotrypsin; FIG. 4, chymotrypsin of 40 BTEE units per mg): 2.3 mg chymotrypsin inhibited by 1 mg inhibitor; inhibition of trypsin activity compared to purified SBTI purified from soya (trypsin; FIG. 5, result in words): far greater inhibition of enzymatic activity; trypsin inhibited by 1 mg inhibitor (trypsin; FIG. 5, trypsin of 10,000 BAEE units per mg): 1.7 mg trypsin inhibited by 1 mg inhibitor
